According to the supplement of paper PMC6379048:

How the values were obtained:
Experiment in all cases: EC50 of free RNA motif oligo competing protein binding to immobilised probe
DDX21 = biological target: T1, DDX21 (UniProt Q9NR30)
T1 sequence: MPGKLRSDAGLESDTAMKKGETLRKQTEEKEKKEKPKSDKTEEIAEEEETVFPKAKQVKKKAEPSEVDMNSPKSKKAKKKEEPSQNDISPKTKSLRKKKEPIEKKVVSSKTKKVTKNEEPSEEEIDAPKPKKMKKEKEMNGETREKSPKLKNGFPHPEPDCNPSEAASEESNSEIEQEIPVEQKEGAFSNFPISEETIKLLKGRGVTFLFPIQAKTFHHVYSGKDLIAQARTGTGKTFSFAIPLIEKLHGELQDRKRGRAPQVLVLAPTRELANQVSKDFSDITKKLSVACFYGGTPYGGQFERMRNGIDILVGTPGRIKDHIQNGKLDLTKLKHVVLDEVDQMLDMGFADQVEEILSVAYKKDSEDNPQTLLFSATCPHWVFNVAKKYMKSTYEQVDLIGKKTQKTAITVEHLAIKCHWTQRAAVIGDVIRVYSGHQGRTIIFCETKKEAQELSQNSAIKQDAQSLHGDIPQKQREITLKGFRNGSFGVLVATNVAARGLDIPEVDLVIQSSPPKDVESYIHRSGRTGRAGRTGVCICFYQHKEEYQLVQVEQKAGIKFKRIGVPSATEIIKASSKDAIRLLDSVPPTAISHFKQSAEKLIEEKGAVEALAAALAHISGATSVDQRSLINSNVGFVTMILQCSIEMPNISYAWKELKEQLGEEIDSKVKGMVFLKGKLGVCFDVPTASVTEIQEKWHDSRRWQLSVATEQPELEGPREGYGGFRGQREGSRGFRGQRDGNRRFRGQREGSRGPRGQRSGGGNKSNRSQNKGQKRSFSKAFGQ
Outline: (§1)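 HEK293-FT lysate (2.5 mg protein/well) was pre-incubated 1 h at 4°C with free RNA oligos (0 nM to 30 μM), then 30 min at 4°C with the same 5′-amino-C6 oligos coupled to NHS-Sepharose beads. Bound proteins were quantified by label-free LC-MS/MS in three biological replicates and two independent experiments, and normalised to the water control. EC50 came from a four-parameter log-logistic fit; Kd is EC50 times a protein-dependent depletion factor.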

IGF2BP2 = IGF2BP2 (UniProt Q9Y6M1)
Outline: as §1

HNRNPU = HNRNPU (UniProt Q00839)
Outline: as §1

SRSF4 = biological target: T2, SRSF4 (UniProt Q08170)
T2 sequence: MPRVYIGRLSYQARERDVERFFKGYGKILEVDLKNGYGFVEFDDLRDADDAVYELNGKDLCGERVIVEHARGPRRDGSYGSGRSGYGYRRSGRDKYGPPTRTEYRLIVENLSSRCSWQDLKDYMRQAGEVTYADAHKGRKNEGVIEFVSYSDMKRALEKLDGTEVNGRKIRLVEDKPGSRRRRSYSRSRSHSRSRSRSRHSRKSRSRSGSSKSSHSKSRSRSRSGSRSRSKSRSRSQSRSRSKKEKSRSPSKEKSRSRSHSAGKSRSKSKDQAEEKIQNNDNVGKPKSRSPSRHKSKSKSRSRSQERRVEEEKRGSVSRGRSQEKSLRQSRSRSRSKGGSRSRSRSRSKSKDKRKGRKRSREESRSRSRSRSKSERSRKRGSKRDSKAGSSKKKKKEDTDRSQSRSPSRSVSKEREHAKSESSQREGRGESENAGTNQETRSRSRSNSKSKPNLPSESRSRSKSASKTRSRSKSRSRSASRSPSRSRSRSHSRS
Outline: as §1

MRPS25 = MRPS25 (UniProt P82663)
Outline: as §1

CSTF2T = biological target: T3, CSTF2T (UniProt Q9H0L4)
T3 sequence: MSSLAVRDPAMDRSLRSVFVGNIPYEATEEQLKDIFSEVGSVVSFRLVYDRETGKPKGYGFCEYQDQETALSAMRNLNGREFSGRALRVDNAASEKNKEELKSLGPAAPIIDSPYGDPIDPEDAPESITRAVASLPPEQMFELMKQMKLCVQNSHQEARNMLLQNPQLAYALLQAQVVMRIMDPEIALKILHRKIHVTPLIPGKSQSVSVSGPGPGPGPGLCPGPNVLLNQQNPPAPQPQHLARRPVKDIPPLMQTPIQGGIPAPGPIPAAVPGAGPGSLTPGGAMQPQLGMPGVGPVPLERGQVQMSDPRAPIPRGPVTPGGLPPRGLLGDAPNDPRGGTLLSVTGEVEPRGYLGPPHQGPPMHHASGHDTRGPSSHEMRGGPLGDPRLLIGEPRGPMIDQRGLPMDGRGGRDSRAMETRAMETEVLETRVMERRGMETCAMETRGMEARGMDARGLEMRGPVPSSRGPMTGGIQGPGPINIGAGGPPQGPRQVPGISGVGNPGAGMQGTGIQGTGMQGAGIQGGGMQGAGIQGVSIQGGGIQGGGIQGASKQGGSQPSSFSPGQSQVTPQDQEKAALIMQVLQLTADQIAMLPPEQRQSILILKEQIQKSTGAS
Outline: as §1

Chain of IGF2BP2 (Q9Y6M1 whole entry): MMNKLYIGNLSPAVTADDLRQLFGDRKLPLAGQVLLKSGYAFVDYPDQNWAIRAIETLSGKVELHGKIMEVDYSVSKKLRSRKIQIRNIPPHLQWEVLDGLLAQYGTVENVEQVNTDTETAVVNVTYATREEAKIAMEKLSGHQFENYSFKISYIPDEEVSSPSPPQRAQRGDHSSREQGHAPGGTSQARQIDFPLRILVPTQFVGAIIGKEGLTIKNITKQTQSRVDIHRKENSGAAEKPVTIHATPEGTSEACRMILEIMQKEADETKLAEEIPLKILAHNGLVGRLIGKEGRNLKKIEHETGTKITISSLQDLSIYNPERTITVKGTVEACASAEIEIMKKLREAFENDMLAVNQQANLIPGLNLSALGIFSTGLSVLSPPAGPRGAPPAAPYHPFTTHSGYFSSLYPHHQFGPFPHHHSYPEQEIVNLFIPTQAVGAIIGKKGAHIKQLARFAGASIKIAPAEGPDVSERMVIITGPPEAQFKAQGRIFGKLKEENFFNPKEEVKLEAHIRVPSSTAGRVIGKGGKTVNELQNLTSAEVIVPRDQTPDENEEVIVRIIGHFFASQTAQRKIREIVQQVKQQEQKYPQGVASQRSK
Chain of HNRNPU (Q00839 whole entry): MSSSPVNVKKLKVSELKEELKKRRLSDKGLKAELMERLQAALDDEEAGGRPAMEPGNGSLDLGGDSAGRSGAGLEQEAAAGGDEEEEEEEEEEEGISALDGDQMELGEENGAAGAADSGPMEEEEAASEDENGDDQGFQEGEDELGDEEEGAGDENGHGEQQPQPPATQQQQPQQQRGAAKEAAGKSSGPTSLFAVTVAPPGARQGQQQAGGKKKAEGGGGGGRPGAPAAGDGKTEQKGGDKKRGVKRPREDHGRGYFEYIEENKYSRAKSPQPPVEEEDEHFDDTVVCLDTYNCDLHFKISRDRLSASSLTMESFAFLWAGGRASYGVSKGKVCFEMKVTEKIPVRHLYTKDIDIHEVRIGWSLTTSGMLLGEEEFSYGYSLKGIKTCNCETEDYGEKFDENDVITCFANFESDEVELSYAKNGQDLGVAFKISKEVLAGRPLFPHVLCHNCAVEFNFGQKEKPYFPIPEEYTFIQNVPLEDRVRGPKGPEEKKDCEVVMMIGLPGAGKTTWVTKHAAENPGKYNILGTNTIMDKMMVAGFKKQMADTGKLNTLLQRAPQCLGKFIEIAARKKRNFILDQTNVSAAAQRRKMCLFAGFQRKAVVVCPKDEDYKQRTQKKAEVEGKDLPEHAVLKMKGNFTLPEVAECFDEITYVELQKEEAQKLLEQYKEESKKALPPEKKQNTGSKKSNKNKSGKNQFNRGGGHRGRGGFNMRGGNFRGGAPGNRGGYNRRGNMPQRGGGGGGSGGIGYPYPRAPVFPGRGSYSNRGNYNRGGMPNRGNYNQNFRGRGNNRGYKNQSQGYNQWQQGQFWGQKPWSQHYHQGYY

CUGUCCU gave an EC50 (DDX21) of 116 nM, an EC50 (IGF2BP2) of 2970 nM and an EC50 (HNRNPU) of 378 nM. The EC50 (SRSF4) was 978 nM.
Work on UAUUUAU yielded an EC50 (MRPS25) of 17.4 nM and an EC50 (CSTF2T) of 357 nM.
